According to patent publication US20120065123A1 (published 2012):
Where no end group is shown, it is not given here.

T1: Gal80 (UniProt P04387 1-435, limits assumed)
T1 construct: Cy3/Cy5 or otherwise fluorescently labelled on arrays; immobilised in SPR and ELISA
T1 sequence (looked up): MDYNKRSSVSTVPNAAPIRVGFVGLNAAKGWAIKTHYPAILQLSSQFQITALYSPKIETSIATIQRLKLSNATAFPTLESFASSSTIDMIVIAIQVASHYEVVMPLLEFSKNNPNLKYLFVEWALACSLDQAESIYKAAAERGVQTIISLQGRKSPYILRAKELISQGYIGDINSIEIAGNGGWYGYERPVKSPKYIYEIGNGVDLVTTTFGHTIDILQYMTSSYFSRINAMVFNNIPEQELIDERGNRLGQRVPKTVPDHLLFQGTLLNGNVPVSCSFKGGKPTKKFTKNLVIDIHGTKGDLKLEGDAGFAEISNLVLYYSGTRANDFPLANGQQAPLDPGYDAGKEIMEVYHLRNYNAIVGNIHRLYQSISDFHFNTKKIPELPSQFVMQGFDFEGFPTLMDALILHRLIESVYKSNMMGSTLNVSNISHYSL


Columns and labels:
[1] = target: T2, pooled human transferrin (Sigma), biotinylated (human, UniProt P02787 20-698, biotinylated at amines with NHS-LC-LC-Biotin); test: SPR (Biacore A-100), biotinylated transferrin captured on Neutravidin, unpurified peptide injected for 60 s [i]
T2 construct: Captured on Neutravidin on a CM5 chip (Biacore A-100)
Source text: (§1) A Biacore A-100 Surface Plasmon Resonance (SPR) system was used to measure the binding response of each peptide to several different target proteins immobilized on a gold surface. The A-100 has four different flow cells and within each flow cell are five addressable spots. Therefore four different proteins and a negative control reference can be used per flow cell. Depending on the purpose of the assay, up to 16 different target proteins can be immobilized on a single SPR chip. The instrument is equipped to evaluate up to 10 384-well plates unattended and can process approximately four 384-well plates per day. Sensorgrams are collected from each immobilized protein, so a binding profile for each analyte versus each of the protein targets is generated for each injection. Target proteins were immobilized using a biotin capture approach in which a CM5 chip was activated using standard amine coupling chemistry and Neutravidin was covalently coupled to the chip. Each biotinylated protein was injected over a single spot and the amount of protein captured was measured.

[2] = target: T2, pooled human transferrin (Sigma), …; test: SPR (Biacore A-100), biotinylated transferrin captured on Neutravidin, unpurified peptide injected for 60 s [b]
[3] = target: T1, Gal80; test: light-directed peptide array, 25 pM labelled GAL80 with 1 mg/mL E. coli lysate; against template BP2
Method: Variant peptides in the array were designed to contain both invariable and variable positions. Invariable positions were coupled using standard Fmoc solid-phase synthesis protocols. Briefly, the Fmoc protecting group was removed with 20% piperidine in DMF for 20 minutes. After deprotection, the next Fmoc amino acid was coupled to the N-terminus of the peptide chain (0.1 M Fmoc amino acid, 0.1 M HATU, 0.4 M DIPEA in DMF). Amino acid coupling times were typically 60 minutes. Variable positions in the peptide were coupled using light-directed chemistry. First, the N-terminal Fmoc group was removed from all peptides using 20% piperidine in DMF and the photolabile protecting group MeNPOC—Cl was coupled to the liberated N-terminal amines for 30 minutes. The array was then immersed in photolysis solution containing 30% β-mercaptoethanol, 7% DIPEA in acetonitrile. A photolithographic mask was projected on the substrate using a Digital Mirror Device, to selectively remove the MeNPOC protecting group in the illuminated regions. The substituted FMOC amino acid was added and allowed to couple to the selectively deprotected regions. After coupling, photodeprotection was repeated for different regions on the array and the next amino acid was coupled. This photodeprotection/coupling cycle was repeated for all substituted amino acids at a particular position in the peptide. After all peptides on the array are grown to the desired length a final side-chain deprotection is done using 95% TFA, 2.5% TIPS, 2.5% H₂O for 1 hour.
The chemically diverse set of 10 amino acids {I, D, W, L, E, G, T, S, K, R} were selected as the amino acids to substitute into the four variable positions for a total of 10,000 unique variant peptides. Three replicates were included in the array to produce a total of 30,000 array features. The variant array (including the lead peptide) was synthesized using light-directed synthesis described above.

[4] = target: T1, Gal80; test: SPR with gal80 immobilised on the chip; Kd from on and off rates
[5] = target: T2, pooled human transferrin (Sigma), …; test: SPR (Biacore A-100), biotinylated transferrin captured on Neutravidin, unpurified peptide injected for 60 s [k]
[6] = target: T2, pooled human transferrin (Sigma), …; test: SPR (Biacore A-100), biotinylated transferrin captured on Neutravidin, unpurified peptide injected for 60 s [j]
[7] = target: T2, pooled human transferrin (Sigma), …; test: SPR (Biacore A-100), biotinylated transferrin captured on Neutravidin, unpurified peptide injected for 60 s [g]
[8] = target: T1, Gal80; test: gel shift assay; gel shift assay
[9] = target: T1, Gal80; test: SPR, synbody in solution, surface-bound Gal80; SPR, synbody in solution, surface-bound Gal80
[10] = target: T2, pooled human transferrin (Sigma), …; test: SPR (Biacore A-100), biotinylated transferrin captured on Neutravidin, unpurified peptide injected for 60 s [l]
Source text: as §1

[11] = target: T2, pooled human transferrin (Sigma), …; test: SPR (Biacore A-100), biotinylated transferrin captured on Neutravidin, unpurified peptide injected for 60 s [d]
[12] = target: T2, pooled human transferrin (Sigma), …; test: SPR (Biacore A-100), biotinylated transferrin captured on Neutravidin, unpurified peptide injected for 60 s [c]
Source text: as §1

[13] = target: T2, pooled human transferrin (Sigma), …; test: SPR (Biacore A-100), biotinylated transferrin captured on Neutravidin, unpurified peptide injected for 60 s [f]

T2 sequence (P02787 20-698 limits assumed): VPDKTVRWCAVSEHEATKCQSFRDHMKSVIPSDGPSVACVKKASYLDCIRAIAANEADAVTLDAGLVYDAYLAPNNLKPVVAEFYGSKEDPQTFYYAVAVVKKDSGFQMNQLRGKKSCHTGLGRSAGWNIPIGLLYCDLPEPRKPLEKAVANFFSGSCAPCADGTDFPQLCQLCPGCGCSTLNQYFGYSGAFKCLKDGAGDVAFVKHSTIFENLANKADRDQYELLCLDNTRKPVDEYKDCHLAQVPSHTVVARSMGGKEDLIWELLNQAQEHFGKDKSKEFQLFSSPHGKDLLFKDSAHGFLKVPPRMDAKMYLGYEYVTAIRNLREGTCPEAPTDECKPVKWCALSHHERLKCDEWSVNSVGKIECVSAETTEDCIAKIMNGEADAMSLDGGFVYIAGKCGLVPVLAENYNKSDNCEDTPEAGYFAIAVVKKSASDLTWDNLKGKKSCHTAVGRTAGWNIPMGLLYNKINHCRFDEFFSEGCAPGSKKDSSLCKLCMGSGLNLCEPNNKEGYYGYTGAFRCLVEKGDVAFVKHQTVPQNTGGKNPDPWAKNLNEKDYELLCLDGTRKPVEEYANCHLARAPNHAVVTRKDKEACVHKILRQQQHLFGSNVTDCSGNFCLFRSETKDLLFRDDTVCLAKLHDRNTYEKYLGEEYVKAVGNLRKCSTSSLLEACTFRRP

Fold Enhancement [3] | Binder | other results
10.4 fold | EGEWTEGKKSKIGSC [BP2 variant EGEWTEGKKSKIGSC] | 
9.24 fold | EGEKTEGKKSKGGSC [BP2 variant EGEKTEGKKSKGGSC] | 
10.5 fold | EGEWTEGKKSKTGSC [BP2 variant EGEWTEGKKSKTGSC] | 
11 fold | EGEWTEGKKSKRGSC [BP2 variant EGEWTEGKKSKRGSC] | 
9.81 fold | EGEKTEGKKSKLGSC [BP2 variant EGEKTEGKKSKLGSC] | 
10.7 fold | EGEWTEGKKSKEGSC [BP2 variant EGEWTEGKKSKEGSC] | 
11.1 fold | EGEWTEGKKSKGGSC [BP2 variant EGEWTEGKKSKGGSC] | 
8.5 fold | EGEKTEGKKSKTGSC [BP2 variant EGEKTEGKKSKTGSC] | 
10.7 fold | EGEWTEGKKSKLGSC [BP2 variant EGEWTEGKKSKLGSC] | 

The next lines start with the binder.

Binder | Fold Enhancement [3] | other results
AMMRMDMAGLNKIVFHQGSC (Unpurified library peptide) [transferrin binding peptide of FIG. 60I] |  | binding result [1]: binds
NIRMLLRFTVFPAQKLIGSC (Unpurified library peptide) [transferrin binding peptide of FIG. 60B] |  | binding result [2]: binds
EGEITEGKGSKKGSC [BP2 variant EGEITEGKGSKKGSC] | 9.87 fold | 
EGEITEGKLSKKGSC [BP2 variant EGEITEGKLSKKGSC] | 9.72 fold | 
GTEKGTSGWLKTGSC (chain 1 pos 15: Cys thiol joined via SMCC maleimide to an amine-modified cytosine of the double-stranded DNA linker, which the letters cannot carry, also called BP1 alone conjugated to DNA linker) [BP1 on dsDNA] |  | Kd [4]: 482 nM
EGEITEGKKSKLGSC [BP2 variant EGEITEGKKSKLGSC] | 11.1 fold | 
EGEDTEGKKSKEGSC [BP2 variant EGEDTEGKKSKEGSC] | 10.1 fold | 
EGEDTEGKKSKGGSC [BP2 variant EGEDTEGKKSKGGSC] | 10.8 fold | 
EGEDTEGKKSKRGSC [BP2 variant EGEDTEGKKSKRGSC] | 10.4 fold | 
EGEITEGKKSKIGSC (Made in place on a glass slide by light-directed synthesis) [BP2 variant EGEITEGKKSKIGSC] | 11.3 fold | 
EGEITEGKKSKTGSC [BP2 variant EGEITEGKKSKTGSC] | 10.6 fold | 
EGEKTEGKKSKEGSC [BP2 variant EGEKTEGKKSKEGSC] | 9.7 fold | 
EGEITEGKKSKSGSC [BP2 variant EGEITEGKKSKSGSC] | 9.91 fold | 
EGEITEGKKSKRGSC [BP2 variant EGEITEGKKSKRGSC] | 10.5 fold | 
EGEDTEGKKSKTGSC [BP2 variant EGEDTEGKKSKTGSC] | 10.2 fold | 
EGEDTEGKKSKIGSC [BP2 variant EGEDTEGKKSKIGSC] | 10.4 fold | 
EGEDTEGKKSKLGSC [BP2 variant EGEDTEGKKSKLGSC] | 10.4 fold | 
EGEITEGKKSKEGSC [BP2 variant EGEITEGKKSKEGSC] | 10.9 fold | 
EGEITEGKKSKGGSC [BP2 variant EGEITEGKKSKGGSC] | 10.8 fold | 
QENDQQSFGLGGMMGQAGSC (Unpurified library peptide) [transferrin binding peptide of FIG. 60K] |  | binding result [5]: binds
DRDTPWETTNKTEEGIEGSC (Unpurified library peptide) [transferrin binding peptide of FIG. 60J] |  | binding result [6]: binds
DNSRRSAKQRIFMHVDLGSC (Unpurified library peptide) [transferrin binding peptide of FIG. 60G] |  | binding result [7]: binds
linker-optimized BP1/BP2 DNA-linked synbody (BP1 on the template strand, BP2 at position 13 from the 3' end of the variable strand) (designed binder, not fully specified (some residues, bridges); also: two DNA strands, each joined to a peptide C-terminal Cys through SMCC, double-stranded DNA linker, Two peptides held by a double-stranded DNA linker; for ELISA a third psoralen-crosslinked strand carried biotin and streptavidin-HRP; also called gal80 synbody; the linker-optimized synbody) peptide 1: GTEKGTSGWLKTGSC peptide 2: EGEWTEGKLSLRGSC |  | Kd [8]: ~100 nM; Kd [9]: 91 nM
EGEWTEGKLSLRGSC (chain 1 pos 15: Cys thiol joined via SMCC maleimide to an amine-modified cytosine of the double-stranded DNA linker, which the letters cannot carry, also called BP2 alone conjugated to DNA linker) [BP2 on dsDNA] |  | Kd [4]: 982 nM
TEDNDYMVVSMVVTMEPGSC (Unpurified library peptide) [transferrin binding peptide of FIG. 60L] |  | binding result [10]: binds
DFLWSKSGILSHASWNHGSC (Unpurified library peptide) [transferrin binding peptide of FIG. 60D] |  | binding result [11]: binds
WMDDIDAPQDEWWVFHHGSC (Unpurified library peptide) [transferrin binding peptide of FIG. 60C] |  | binding result [12]: binds
KMRTITYYHLQAILKQRGSC (Unpurified library peptide) [transferrin binding peptide of FIG. 60F] |  | binding result [13]: binds
